The target in series [1] is T1, HCII peptide (SEQ ID NO:24), modeled on the tyrosine sulfation site in heparin cofactor II.
T1 chain: EGEEDDDYLDLEKIFC

Series [2] addresses T2, C4α peptide (SEQ ID NO:23), modeled on tyrosine sulfation sites in the α chain of the fourth component of complement.
T2 chain: EANEDYEDYEYDELPAC

B1: Human TPST-1-HPC4 fusion protein (protein)
chain: MEDQVDPRLIDGKDPVGKLKQNLLLACLVISSVTVFYLGQHAMECHHRIEERSQPVKLESTRTTVRTGLDLKANKTFAYHKDMPLIFIGGVPRSGTTLMRAMLDAHPDIRCGEETRVIPRILALKQMWSRSSKEKIRLDEAGVTDEVLDSAMQAFLLEIIVKHGEPAPYLCNKDPFALKSLTYLSRLFPNAKFLLMVRDGRASVHSMISRKVTIAGFDLNSYRDCLTKWNRAIETMYNQCMEVGYKKCMLVHYEQLVLHPERWMRTLLKFLQIPWNHSVLHHEEMIGKAGGVSLSKVERSTDQVIKPVNVGALSKWVGKIPPDVLQDMAVIAPMLAKLGYDPYANPPNYGKPDPKIIENTRRVYKGEFQLPDFLKEKPQTEQVE
On to B1, for which the figures for the “specific activity of TPST-1 extracts relative to TPST-2 extracts assayed in parallel” value in series [1] and in series [2] were 21-fold higher using the HCII peptide as substrate and 9-fold higher using the C4α peptide, respectively.

Source of the values: US20030170849.
